Assays:
Esc2 = target: T1, Esc2 (Saccharomyces cerevisiae, UniProt Q06340 1-456); experiment: EMSA; strong preference; 7 nM DNA; EMSA, 7 nM fluorescein-labeled DNA, 10 min at 37 C; buffer, salt and pH not given in the material; conditions: protein: recombinant, tags: GST tag removed, label: 5'-fluorescein on strand 1
T1 sequence: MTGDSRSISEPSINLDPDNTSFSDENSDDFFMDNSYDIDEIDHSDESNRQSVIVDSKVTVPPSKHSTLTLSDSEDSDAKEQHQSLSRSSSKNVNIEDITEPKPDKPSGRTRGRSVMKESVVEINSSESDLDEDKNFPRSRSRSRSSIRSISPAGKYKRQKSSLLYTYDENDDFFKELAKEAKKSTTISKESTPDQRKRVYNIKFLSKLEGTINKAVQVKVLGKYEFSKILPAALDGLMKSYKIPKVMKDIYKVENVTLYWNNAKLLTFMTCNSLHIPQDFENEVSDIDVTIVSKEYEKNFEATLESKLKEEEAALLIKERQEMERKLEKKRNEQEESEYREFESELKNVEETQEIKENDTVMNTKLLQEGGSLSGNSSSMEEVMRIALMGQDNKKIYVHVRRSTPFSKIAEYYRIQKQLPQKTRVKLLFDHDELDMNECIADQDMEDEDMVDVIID

Esc2 1-151 = target: T2, Esc2 1-151 (Saccharomyces cerevisiae, UniProt Q06340 1-151); experiment: EMSA; binding completely lost; up to 1000 nM protein; EMSA, 7 nM fluorescein-labeled DNA, 10 min at 37 C; buffer, salt and pH not given in the material; conditions: protein: recombinant; tags: expressed as GST fusion; tag status in assay not explicit; label: 5'-fluorescein on strand 1; fork 1:3 1:4 2:4; three duplex arms
T2 sequence: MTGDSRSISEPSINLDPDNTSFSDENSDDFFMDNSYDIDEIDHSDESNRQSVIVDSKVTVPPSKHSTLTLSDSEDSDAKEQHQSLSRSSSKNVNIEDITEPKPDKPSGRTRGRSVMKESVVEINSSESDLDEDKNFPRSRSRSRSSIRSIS

Esc2 200-456 = target: T3, Esc2 200-456 (Saccharomyces cerevisiae, UniProt Q06340 200-456); experiment: EMSA; up to 1000 nM protein; EMSA, 7 nM fluorescein-labeled DNA, 10 min at 37 C; buffer, salt and pH not given in the material; conditions: protein: recombinant; tags: expressed as GST fusion; tag status in assay not explicit; label: 5'-fluorescein on strand 1; fork 1:3 1:4 2:4; three duplex arms
T3 sequence: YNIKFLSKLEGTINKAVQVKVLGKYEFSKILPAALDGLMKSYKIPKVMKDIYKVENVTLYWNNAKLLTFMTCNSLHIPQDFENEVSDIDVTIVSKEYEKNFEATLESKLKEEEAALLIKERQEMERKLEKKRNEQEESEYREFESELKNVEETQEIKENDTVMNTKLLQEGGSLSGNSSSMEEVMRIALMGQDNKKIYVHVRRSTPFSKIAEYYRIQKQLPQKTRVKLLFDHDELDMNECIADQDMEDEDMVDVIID

Esc2 1-199 = target: T4, Esc2 1-199 (Saccharomyces cerevisiae, UniProt Q06340 1-199); experiment: EMSA; highly proficient; 7 nM DNA, 0-1000 nM protein; EMSA, 7 nM fluorescein-labeled DNA, 10 min at 37 C; buffer, salt and pH not given in the material; conditions: protein: recombinant; tags: expressed as GST fusion; tag status in assay not explicit; label: 5'-fluorescein on strand 1; fork 1:3 1:4 2:4; three duplex arms
T4 sequence: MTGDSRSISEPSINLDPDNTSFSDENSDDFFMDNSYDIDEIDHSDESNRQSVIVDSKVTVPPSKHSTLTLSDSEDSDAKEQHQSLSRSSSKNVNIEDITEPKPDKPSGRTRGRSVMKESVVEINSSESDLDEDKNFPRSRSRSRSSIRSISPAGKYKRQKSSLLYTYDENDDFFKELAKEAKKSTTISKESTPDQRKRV

Esc2 FF173,174AA = target: T5, Esc2 FF173,174AA (Saccharomyces cerevisiae, UniProt Q06340 1-456, F173A;F174A); experiment: EMSA; still proficient, degree only in figure; EMSA, 7 nM fluorescein-labeled DNA, 10 min at 37 C; buffer, salt and pH not given in the material; conditions: protein: recombinant; tags: expressed as GST fusion; tag status in assay not explicit; label: 5'-fluorescein on strand 1; fork 1:3 1:4 2:4; three duplex arms
T5 sequence: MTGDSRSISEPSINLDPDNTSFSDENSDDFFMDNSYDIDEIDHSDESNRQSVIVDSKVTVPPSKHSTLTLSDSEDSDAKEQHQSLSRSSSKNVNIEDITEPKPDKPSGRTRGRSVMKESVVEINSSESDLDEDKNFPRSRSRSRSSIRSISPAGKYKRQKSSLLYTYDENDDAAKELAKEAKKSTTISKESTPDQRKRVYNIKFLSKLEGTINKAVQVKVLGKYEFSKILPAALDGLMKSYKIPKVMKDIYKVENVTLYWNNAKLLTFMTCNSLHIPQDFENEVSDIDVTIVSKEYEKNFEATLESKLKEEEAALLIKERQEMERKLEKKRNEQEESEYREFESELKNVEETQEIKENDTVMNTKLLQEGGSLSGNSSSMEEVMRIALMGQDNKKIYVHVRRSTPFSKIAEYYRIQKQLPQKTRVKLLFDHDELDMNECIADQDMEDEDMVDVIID

| Binder | binding result (Esc2; fork 1:3 1:4 2:4, three duplex arms) | binding result (Esc2 1-151) | binding result (Esc2 200-456) | binding result (Esc2 1-199) | binding result (Esc2 FF173,174AA) | binding result (Esc2; 3' flap 1:2 1:3, 20 nt ss 3' flap on strand 3) |
| --- | --- | --- | --- | --- | --- | --- |
| Fork (oligos 18, 20, 21, 22) (structured_DNA) DNA 1: AGCTACCATGCCTGCACGAATTAAGCAATTCGTAATCATGGTCATAGCT DNA 2: CTACAGTTCGTCAGGATTCC DNA 3: AATTCGTGCAGGCATGGTAGCT DNA 4: AGCTATGACCATGATTACGAATTGCTTGGAATCCTGACGAACTGTAG | binds | no binding | no binding | binds | binds |  |
| 3'-Flap (oligos 18, 21, 22) (structured_DNA) DNA 1: AGCTACCATGCCTGCACGAATTAAGCAATTCGTAATCATGGTCATAGCT DNA 2: AATTCGTGCAGGCATGGTAGCT DNA 3: AGCTATGACCATGATTACGAATTGCTTGGAATCCTGACGAACTGTAG |  |  |  |  |  | binds |

— article PMC4604347, “Local regulation of the Srs2 helicase by the SUMO-like domain protein Esc2 promotes recombination at sites of stalled replication”
